In patent US20020152485A1 (BOSTON HEART FOUNDATION, published 2002):
Each block holds one binder with its values, some of them ahead of it.

Columns and labels:
[1] = target: T1, native human low density lipoprotein (LDL) (human, UniProt P04114 28-4563); assay: affinity coelectrophoresis (ACE): 125I-LBP-2 run through LDL cast in agarose; binding curve
T1 construct: This is a lipoprotein particle (protein plus lipid), not an isolated polypeptide; also called native LDL; cold LDL
Method: (§1) Analysis of the affinity and specificity of recombinant rabbit LBP-1, LBP-2 or LBP-3 binding to LDL was carried out using the principle of affinity electrophoresis (Lee and Lander, Proc. Natl. Acad. Sci. USA 88:2768-2772 (1991)). Melted agarose (1%; 65° C.) was prepared in 50 mM sodium MOPS, pH 7.0; 125 mM sodium acetate, 0.5% CHAPS. A teflon comb consisting of nine parallel bars (45×4×4 mm/3 mm spacing between bars) was placed onto GelBond film (FMC Bioproducts, Rockland, Me.) fitted to a plexiglass casting tray with the long axis of the bars parallel to the long axis of the casting tray. A teflon strip (66×1×1 mm) was placed on edge with the long axis parallel to the short axis of the casting tray, at a distance of 4 mm from the edge of the teflon comb. Melted agarose (>65° C.) was then poured to achieve a height of approximately 4 mm. […] LDL or HDL samples were prepared in gel buffer (50 mM sodium MOPS, pH 7.0, 125 mM sodium acetate) at twice the desired concentration. Samples were then mixed with an equal volume of melted agarose (in 50 mM MOPS, pH 7.0; 125 mM sodium acetate; 50° C.), pipetted into the appropriate rectangular wells and allowed to gel. The binding affinity and specificity of LBP-1 and LBP-3 was tested using several concentrations of LDL (540 to 14 nM) and HDL (2840177 nM). […]

[2] = target: T1, native human low density lipoprotein …; assay: affinity coelectrophoresis (ACE): 125I-LBP-3 run through LDL cast in agarose; binding curve
Method: as §1

T1 sequence (P04114 28-4563): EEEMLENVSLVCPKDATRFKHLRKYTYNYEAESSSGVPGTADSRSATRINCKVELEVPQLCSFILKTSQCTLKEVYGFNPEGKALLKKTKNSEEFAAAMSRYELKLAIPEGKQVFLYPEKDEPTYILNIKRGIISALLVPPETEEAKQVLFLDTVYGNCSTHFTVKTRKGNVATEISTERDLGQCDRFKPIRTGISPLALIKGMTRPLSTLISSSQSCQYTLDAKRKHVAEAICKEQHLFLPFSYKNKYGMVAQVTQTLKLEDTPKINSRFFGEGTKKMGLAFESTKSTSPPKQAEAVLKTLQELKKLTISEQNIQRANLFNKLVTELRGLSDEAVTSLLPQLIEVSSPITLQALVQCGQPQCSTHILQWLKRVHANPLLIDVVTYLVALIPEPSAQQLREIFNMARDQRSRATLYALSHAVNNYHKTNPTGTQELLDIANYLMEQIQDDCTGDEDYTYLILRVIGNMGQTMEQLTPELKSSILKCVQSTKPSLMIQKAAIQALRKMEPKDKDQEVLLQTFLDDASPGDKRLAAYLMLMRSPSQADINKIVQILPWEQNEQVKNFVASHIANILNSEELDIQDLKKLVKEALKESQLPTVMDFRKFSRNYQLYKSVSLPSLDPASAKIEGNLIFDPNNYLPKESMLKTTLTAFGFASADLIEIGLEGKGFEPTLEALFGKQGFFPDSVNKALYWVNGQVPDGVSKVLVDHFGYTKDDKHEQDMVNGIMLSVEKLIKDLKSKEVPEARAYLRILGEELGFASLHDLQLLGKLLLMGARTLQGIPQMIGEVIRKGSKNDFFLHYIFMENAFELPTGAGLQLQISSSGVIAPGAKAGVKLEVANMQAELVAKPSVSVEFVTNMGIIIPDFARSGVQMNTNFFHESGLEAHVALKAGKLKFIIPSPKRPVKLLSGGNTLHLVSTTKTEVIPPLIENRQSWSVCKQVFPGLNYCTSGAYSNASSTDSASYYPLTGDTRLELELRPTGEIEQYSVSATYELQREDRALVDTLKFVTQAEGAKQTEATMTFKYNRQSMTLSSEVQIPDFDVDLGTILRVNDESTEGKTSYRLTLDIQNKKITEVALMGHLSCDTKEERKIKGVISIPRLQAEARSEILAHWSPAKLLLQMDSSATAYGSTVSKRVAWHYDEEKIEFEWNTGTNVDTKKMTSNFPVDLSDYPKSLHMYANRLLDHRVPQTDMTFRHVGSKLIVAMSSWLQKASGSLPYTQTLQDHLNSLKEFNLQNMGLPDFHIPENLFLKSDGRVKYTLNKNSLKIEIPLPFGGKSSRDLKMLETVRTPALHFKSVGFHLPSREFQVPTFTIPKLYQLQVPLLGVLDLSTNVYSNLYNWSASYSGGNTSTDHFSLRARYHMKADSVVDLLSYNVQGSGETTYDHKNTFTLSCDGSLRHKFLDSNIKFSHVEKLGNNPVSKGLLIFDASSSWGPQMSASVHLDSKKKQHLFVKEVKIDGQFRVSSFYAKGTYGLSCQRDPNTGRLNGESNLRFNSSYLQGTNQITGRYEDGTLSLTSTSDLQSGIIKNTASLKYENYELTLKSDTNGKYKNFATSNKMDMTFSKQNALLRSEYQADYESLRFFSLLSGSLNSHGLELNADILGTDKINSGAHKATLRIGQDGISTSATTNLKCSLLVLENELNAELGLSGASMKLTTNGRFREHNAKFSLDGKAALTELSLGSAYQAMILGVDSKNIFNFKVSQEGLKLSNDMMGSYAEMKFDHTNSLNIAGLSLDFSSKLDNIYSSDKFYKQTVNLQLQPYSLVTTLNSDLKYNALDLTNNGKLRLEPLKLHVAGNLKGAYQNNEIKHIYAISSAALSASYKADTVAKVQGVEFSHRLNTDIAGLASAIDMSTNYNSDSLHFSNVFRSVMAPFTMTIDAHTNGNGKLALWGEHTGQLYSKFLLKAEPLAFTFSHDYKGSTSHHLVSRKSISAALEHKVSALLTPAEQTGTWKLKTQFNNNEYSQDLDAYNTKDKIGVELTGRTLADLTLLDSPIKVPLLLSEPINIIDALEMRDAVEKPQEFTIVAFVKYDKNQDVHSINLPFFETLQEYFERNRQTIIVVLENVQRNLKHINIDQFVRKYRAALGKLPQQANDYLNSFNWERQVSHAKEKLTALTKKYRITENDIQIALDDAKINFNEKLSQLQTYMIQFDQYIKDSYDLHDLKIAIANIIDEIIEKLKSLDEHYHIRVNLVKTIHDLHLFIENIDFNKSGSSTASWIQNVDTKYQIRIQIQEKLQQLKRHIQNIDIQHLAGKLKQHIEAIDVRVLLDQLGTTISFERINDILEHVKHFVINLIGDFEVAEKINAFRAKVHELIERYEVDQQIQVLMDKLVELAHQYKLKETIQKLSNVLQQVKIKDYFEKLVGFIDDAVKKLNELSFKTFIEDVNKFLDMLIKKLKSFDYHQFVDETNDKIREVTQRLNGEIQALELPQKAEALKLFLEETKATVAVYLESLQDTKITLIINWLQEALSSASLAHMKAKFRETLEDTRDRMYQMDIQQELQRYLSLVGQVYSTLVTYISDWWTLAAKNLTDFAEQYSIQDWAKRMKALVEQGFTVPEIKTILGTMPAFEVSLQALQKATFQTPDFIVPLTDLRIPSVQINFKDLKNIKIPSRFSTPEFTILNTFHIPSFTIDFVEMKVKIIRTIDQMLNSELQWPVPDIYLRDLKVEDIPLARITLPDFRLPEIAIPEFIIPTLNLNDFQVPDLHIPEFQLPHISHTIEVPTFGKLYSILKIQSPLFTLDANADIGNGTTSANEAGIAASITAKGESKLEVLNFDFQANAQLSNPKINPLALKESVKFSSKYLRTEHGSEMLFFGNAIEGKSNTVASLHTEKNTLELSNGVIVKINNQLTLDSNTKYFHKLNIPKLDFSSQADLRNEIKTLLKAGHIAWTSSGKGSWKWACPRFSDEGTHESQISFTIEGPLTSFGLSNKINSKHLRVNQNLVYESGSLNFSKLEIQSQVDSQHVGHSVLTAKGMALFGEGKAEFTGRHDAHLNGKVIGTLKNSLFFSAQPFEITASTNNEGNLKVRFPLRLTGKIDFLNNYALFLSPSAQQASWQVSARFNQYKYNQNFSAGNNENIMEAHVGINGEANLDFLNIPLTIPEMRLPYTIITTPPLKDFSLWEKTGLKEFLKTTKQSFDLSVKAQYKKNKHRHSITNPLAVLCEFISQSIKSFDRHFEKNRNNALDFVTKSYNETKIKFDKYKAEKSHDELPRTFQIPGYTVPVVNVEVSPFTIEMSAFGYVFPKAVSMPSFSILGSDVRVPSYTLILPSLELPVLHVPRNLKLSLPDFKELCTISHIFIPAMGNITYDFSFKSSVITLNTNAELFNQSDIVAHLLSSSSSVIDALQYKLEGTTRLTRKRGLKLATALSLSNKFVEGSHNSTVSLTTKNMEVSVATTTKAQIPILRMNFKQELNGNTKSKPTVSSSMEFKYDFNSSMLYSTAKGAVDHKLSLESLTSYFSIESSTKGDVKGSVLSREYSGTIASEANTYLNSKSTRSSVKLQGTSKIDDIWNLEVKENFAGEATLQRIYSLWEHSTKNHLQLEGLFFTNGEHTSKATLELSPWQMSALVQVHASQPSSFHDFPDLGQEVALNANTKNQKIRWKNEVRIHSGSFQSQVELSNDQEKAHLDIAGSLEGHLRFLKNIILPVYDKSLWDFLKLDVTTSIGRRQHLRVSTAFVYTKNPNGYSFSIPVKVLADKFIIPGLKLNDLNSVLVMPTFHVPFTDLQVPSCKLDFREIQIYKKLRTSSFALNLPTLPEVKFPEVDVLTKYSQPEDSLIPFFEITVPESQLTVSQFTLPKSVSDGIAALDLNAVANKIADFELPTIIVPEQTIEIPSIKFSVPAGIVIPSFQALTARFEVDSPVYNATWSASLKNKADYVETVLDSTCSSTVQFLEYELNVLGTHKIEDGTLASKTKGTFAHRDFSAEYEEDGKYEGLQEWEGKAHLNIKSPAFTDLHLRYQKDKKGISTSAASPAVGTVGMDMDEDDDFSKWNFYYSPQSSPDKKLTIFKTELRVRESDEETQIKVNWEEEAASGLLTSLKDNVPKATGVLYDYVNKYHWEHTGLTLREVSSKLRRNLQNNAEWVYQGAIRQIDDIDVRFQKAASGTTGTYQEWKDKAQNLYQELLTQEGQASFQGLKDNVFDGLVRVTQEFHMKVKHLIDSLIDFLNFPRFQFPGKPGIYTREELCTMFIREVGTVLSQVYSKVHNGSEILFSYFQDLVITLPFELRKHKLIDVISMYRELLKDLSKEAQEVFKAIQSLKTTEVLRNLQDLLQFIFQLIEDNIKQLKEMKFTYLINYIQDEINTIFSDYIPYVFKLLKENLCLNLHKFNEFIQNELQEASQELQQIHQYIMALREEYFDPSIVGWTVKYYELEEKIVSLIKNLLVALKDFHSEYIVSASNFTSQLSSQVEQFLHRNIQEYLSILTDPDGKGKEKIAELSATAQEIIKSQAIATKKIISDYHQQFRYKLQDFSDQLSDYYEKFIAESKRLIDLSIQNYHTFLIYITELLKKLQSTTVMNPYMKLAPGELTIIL

Kd [1]: 100 nM
B1: recombinant rabbit LBP-2 clone 26 (6-His tag) (other)
chain: PPPPQQPQPPPEGGAARAGGPARPVSLREVVRYLGGSSGAGGRLTRGRVQGLLEEEAAARGRLERTRLGALALPRGDRPGRAPPAASARAARNKRAGEERVLEKEEEEEEEEDDEDDDDDVVSEGSEVPESDRPAGAQHHQLNGGERGPQTAKERAKEWSLCGPHPGQEEGRGPAAGSGTRQVFSMAALSKEGGSASSTTGPDSPSPVPLPPGKPALPGADGTPFGCPAGRKEKPADPVEWTVMDVVEYFTEAGFPEQATAFQEQEIDGKSLLLMQRTDVLTGLSIRLGPALKIYEHHIKVLQQGHFEDDDPEGFLG
modifications: 125I-iodinated (Iodobeads) where used as the radiolabeled species in ACE assays
notes: Clone 26 contains the acidic region, residues 338-365; also called LBP-2 (rabbit clone 26); clone 26 derived LBP-2; not shown: N-terminal 6-histidine tag from the pPROEX-HT vector

Kd [2]: 333 nM
B2: recombinant rabbit LBP-3 (6-His tag) (other)
chain: MKNQDKKNGAAKQPNPKSSPGQPEAGAEGAQGRPGRPAPAREAEGASSQAPGRPEGAQAKTAQPGALCDVSEELSRQLEDILSTYCVDNNQGAPGEDGVQGEPPEPEDAEKSRAYVARNGEPEPGTPVVNGEKETSKAEPGTEEIRTSDEVGDRDHRRPQEKKKAKGLGKEITLLMQTLNTLSTPEEKLAALCKKYAELLEEHRNSQKQMKLLQKKQSQLVQEKDHLRGEHSKAILARSKLESLCRELQRHNRSLKEEGVQRAREEEEKRKEVTSHFQMTLNDIQLQMEQHNERNSKLRQENMELAERLKKLIEQYELREEHIDKVFKHKDLQQQLVDAKLQQAQEMLKEAEERHQREKDFLLKEAVESQRMCELMKQQETHLKQQLALYTEKFEEFQNTLSKSSEVFTTFKQEMEKMTKKIKKLEKETTMYRSRWESSNKALLEMAEEKTLRDKELEGLQVKIQRLEKLCRALQTERNDLNKRVQDLSAGGQGPVSDSGPERRPEPATTSKEQGVEGPGAQVPNSPRATDASCCAGAPSTEASGQTGPQEPTTATA
modifications: 125I-iodinated (Iodobeads) where used as the radiolabeled species in ACE assays
notes: also called LBP-3 (80 kDa fragment); rabbit recombinant LBP-3; not shown: N-terminal 6-histidine tag from the pPROEX-HT vector
